Activity (relative to I-SceI) and activity data for 13 sequences are collected here from US20210059142.

Experiment in all cases: cell_activity
In data set [1] the test system is FucT1_T01 TAL effector endonuclease, right monomer (engineered). The settings on record: yeast beta-gal assay of the pair 37 C; 0.6 at 30 C.
Data set [2] has as its system XylT_T03 TAL effector endonuclease, right monomer (engineered). To be noted: yeast beta-gal assay of the pair 37 C; 0.7 at 30 C; protoplast NHEJ 34.4% XylT1, 28.2% XylT2 (Table 3).
The subject of data set [3] is XylT_T04 TAL effector endonuclease, right monomer (engineered). The settings on record: yeast beta-gal assay of the pair 37 C; 0.9 at 30 C; protoplast NHEJ 73.8% XylT1, 63.9% XylT2 (Table 3).
Data set [4] relates to FucT2_T02 TAL effector endonuclease, right monomer (engineered). To be noted: yeast beta-gal assay of the pair 37 C; 0.7 at 30 C; protoplast NHEJ 46.5% FucT1, 45.0% FucT2 (Table 3).
The subject of data set [5] is FucT1_T02 TAL effector endonuclease, right monomer (engineered). The settings on record: yeast beta-gal assay of the pair 37 C; 0.7 at 30 C; protoplast NHEJ 39.2% FucT1, 24.7% FucT2 (Table 3).
In data set [6] the test system is FucT2_T01 TAL effector endonuclease, right monomer (engineered). The settings on record: yeast beta-gal assay of the pair 37 C; 0.8 at 30 C.
Data set [7] relates to XylT_T04 TAL effector endonuclease, left monomer (engineered). The settings on record: yeast beta-gal assay of the pair 37 C; 0.9 at 30 C; protoplast NHEJ 73.8% XylT1, 63.9% XylT2 (Table 3).
Data set [8] has as its system FucT1_T01 TAL effector endonuclease, left monomer (engineered). To be noted: yeast beta-gal assay of the pair 37 C; 0.6 at 30 C.
Data set [9] has as its system FucT2_T01 TAL effector endonuclease, left monomer (engineered). The settings on record: yeast beta-gal assay of the pair 37 C; 0.8 at 30 C.
Data set [10] concerns FucT1_T02 TAL effector endonuclease, left monomer (engineered).
Data set [11] has as its system FucT2_T02 TAL effector endonuclease, left monomer (engineered).
The test system of data set [12] is XylT_T03 TAL effector endonuclease, left monomer (engineered). The settings on record: yeast beta-gal assay of the pair 37 C; 0.7 at 30 C; protoplast NHEJ 34.4% XylT1, 28.2% XylT2 (Table 3).
Data set [13] has as its system FucT_T04 TAL effector endonuclease, left monomer (engineered). The settings on record: yeast beta-gal assay of the pair 37 C; 0.5 at 30 C; same with FucT1 and FucT2 spacers.
Data set [14] deals with FucT_T04 TAL effector endonuclease, right monomer (engineered). To be noted: yeast beta-gal assay of the pair 37 C; 0.5 at 30 C; same with FucT1 and FucT2 spacers.

“AATAAGCAATGGCGCAA (double strand) [FucT1_T01 target sequence 2]” had an activity (relative to I-SceI) in data set [1] of 0.8.
On to “ATCACTCTCTATCTCTA (double strand) [XylT_T03 target sequence 2]”, for which the activity (relative to I-SceI) in [2] came to 0.9.
Sequence “CTCTACTTCTCTTCCCA (double strand) [XylT_T04 target sequence 2]” yielded an activity (relative to I-SceI) in data set [3] of 0.9.
As to “CTCTGTTCGTTGCCCTA (double strand) [FucT_T02 target sequence 2]”, the activity (relative to I-SceI) in [4] and in data set [5] was 0.9 throughout.
As for “GATAAACAATGGCGCAA (double strand) [FucT2_T01 target sequence 2]”, in data set [6], the activity (relative to I-SceI) is 0.9.
For “TCTCTTCGCTCTCAACT (double strand) [XylT_T04 target sequence 1]”, in [7], the activity (relative to I-SceI) worked out at 0.9.
“TGAGATCGGCGTCAAAT (double strand) [FucT1_T01 target sequence 1]” gave an activity (relative to I-SceI) in [8] of 0.8.
In the case of “TGAGATCGTCGTCAAAT (double strand) [FucT2_T01 target sequence 1]”, the activity (relative to I-SceI) in [9] was determined as 0.9.
The sequence “TTCAAACGCACCCAATA (double strand) [FucT1_T02 target sequence 1]” displayed an activity (relative to I-SceI) in data set [10] (yeast beta-gal assay of the pair 37 C, 0.7 at 30 C, protoplast NHEJ 39.2% at FucT1 (Table 3)) of 0.9. Besides, the activity in data set [11] (pair at endogenous FucT1, 1-bp polymorphism in half-site, N. benthamiana protoplasts, control 0.79%) turned out to be 46.5 % NHEJ.
Take “TTCAAACGCACCCGATA (double strand) [FucT2_T02 target sequence 1]”: in [10] (pair at endogenous FucT2, 1-bp polymorphism in half-site, N. benthamiana protoplasts, control 0.14%), the activity turned out to be 24.7 % NHEJ. This sequence came in with an activity (relative to I-SceI) in data set [11] (yeast beta-gal assay of the pair 37 C, 0.7 at 30 C, protoplast NHEJ 45.0% at FucT2 (Table 3)) of 0.9.
In the case of “TTCTTGTTTCTCTCTTC (double strand) [XylT_T03 target sequence 1]”, the activity (relative to I-SceI) in data set [12] stood at 0.9.
Turning to “TTGCCTCTGTTCGTTGC (double strand) [FucT_T04 target sequence 1]”, the activity (relative to I-SceI) in [13] was determined as 0.6.
“TTTCTGGTTCGACTCGA (double strand) [FucT_T04 target sequence 2]” returned an activity (relative to I-SceI) in data set [14] of 0.6.
